According to patent publication US20210324094A1 (MOGAM INSTITUTE FOR BIOMEDICAL RESEARCH, published 2021):

Experiments:
Mouse IR = molecular target: T1, Mouse IR (mouse, UniProt P15208 28-946, limits assumed); assay: SPR, IR immobilised on CM5 chip, IR739 flowed, pH 7.0
T1 construct: also called mouse insulin receptor
Description: (§1) Human IR or mouse IR at 1 μg/ml was immobilized with acetate (pH 4.0) on a CM5 sensor chip. […] For measurement conditions, a flow rate was set as 30 μl/min, and an association time and a dissociation time were set as 120 seconds and 600 seconds, respectively. For regeneration, 10 mM glycine-HCl (pH 1.5) was flowed for 30 seconds.

Human IR = molecular target: T2, Human IR (human, UniProt P06213 28-956, limits assumed); assay: as above
T2 construct: the natural receptor is processed into alpha and beta chains; also called human insulin receptor
Description: as §1

Kd (Mouse IR): 6.4 nM
koff (Mouse IR): 0.00061 s⁻¹
kon (Mouse IR): 95300 M⁻¹ s⁻¹
Kd (Human IR): 15 nM
koff (Human IR): 0.00144 s⁻¹
kon (Human IR): 96000 M⁻¹ s⁻¹
B1: IR739 (antibody, human IgG1, kappa, V domains shown)
VH: EVQLVESGGGLVQPGGSLRLSCAASGFTFSSYYMSWVRQAPGKGLEWVSAISYGGSSTYYADSVKGRFTISRDNSKNTLYLQMNSLRAEDTAVYYCARHPSYGTVNHAYFDVWGQGTLVTVSS
VL: DIQMTQSPSSLSASVGDRVTITCGASRDVSSYLAWYQQKPGKAPKLLIYDANILQSGVPSRFSGSGSGTDFTLTISSLQPEDFATYYCLEYNNLPLTFGQGTKVEIKR
notes: Conventional IgG from a human synthetic scFv library; also called IR739 antibody; anti-IR antibody
